Results on 140 substances are retold here after the supplement of paper PMC12042874.

± gives the uncertainty stated by the source.

The data set in a line: amyloid nucleation score (Sup35N fusion, yeast selection) (log enrichment); library NNK1; higher = more nucleation; inactive = no reads after selection. The procedure, abridged:
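Sup35N was fused to peptides of 20 random codons and expressed in psi-negative yeast, which were induced with 100 μM copper sulfate for 24 hours and then grown on medium lacking adenine and uracil for 7 days at 30°C. Plasmid inserts from input and output were sequenced on Illumina. The nucleation score is the DiMSum log enrichment of output over input reads, centred on the mode score of non-aggregating sequences. Sequences with under 100 input reads were left out, and random libraries had three technical output replicates.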
Regarding GPVVLRTGLLVRFTYHIGRE, the amyloid nucleation score came out at 1.15 ± 0.24.
Take TRFMMRVRIVSDCDTVNFAC: the amyloid nucleation score was -0.379 ± 0.62.
In turn, TLCREEVETRLEATFCGCTN displayed an amyloid nucleation score of 0.979 ± 0.84.
Next, GWVGLLH: 0.457 ± 0.31.
Turning to FYRNIIKINMMVLWISWGHV, the amyloid nucleation score was determined as 0.185 ± 0.79.
Next, YCGMKVDVVIVGRHVFRISF: 0.512 ± 0.41.
Turning to VFHNYFLRTYTNRRARSVSI, the amyloid nucleation score was 2.86 ± 0.14.
Next, GQIIMCAARLWLGKGCVS: -0.588 ± 1.
Consider CLLVKLARLGDG, for which the amyloid nucleation score is 0.536 ± 0.63.
As for SKETAFGLSL, the amyloid nucleation score is -0.368 ± 0.54.
Next, DFFRFC: “inactive”.
Next, WSTNNCCYA: -1.38 ± 2.1.
Consider RPLRCWAIHYGQVYDSSAIL, for which the amyloid nucleation score was found to be 0.987 ± 0.62.
Then CLPRSGLSINWTVSHNYRLI, with 0.11 ± 0.25; and IVLRFIRILISINLSQEH, with -1.14 ± 0.76.
Then IRDNDDLLWMEGRSWKWSRR, with 0.27 ± 0.29; and LCLVFVNLVLQRYGIASWYT, with 0.531 ± 0.3.
Next, IRAQGHNYWALMRVAEWVVG: 1.75 ± 0.42; TYVLTP: -0.454 ± 1.6.
WSMMCKWMNVERFIYMLKSC showed an amyloid nucleation score of 0.394 ± 1.1.
Take NRRMFV: the amyloid nucleation score is -1.13 ± 0.48.
Next, SFAVHVGVANSSGSCLMLGG: 0.277 ± 0.3; LSMSTFVKVCDVNAYPKGTA: 0.358 ± 1.1.
Then VPCNYKGSLSGRRYLSAKQS, with 0.011 ± 0.34; and GLWKGLRHSSSKWERPHIRQ, with 1.1 ± 0.62.
With VTVFEILWGMTT, the amyloid nucleation score entry is “inactive”.
GCRTLHGGAVDKLYTWCHLA registered an amyloid nucleation score of 0.504 ± 0.92.
Regarding SAYSKILSLPVRMGVWVAHI, the amyloid nucleation score amounted to 0.658 ± 0.42.
Next, IKEFLKACNHHEPMPGNLMR: -0.005 ± 0.54.
With KLSNFKVHYCYLTSHLMLET, the amyloid nucleation score was 0.053 ± 0.43.
Then PFVDVTRHRNSPS, with 1.01 ± 1; and YVFRPLVERDRSLMKLVQQL, with “inactive”; and QCHVVDFRRKYLELRSSLRY, with “inactive”.
Next, DMSIKFCEPDFLLRNEQHNL: 0.382 ± 0.3; YNYSRYIRERFWFYT: 0.115 ± 0.38; FLHVPVLFSFTHCFMG: 3.03 ± 0.13.
Then IDWSVHL, with “inactive”; and NREVYKMLLGCFSIHISCNR, with “inactive”; and IYDTGVAFDCSLM, with “inactive”.
Consider PTSLLLGINYCLFWSIYLRD, for which the amyloid nucleation score was 1.81 ± 0.16.
Then KVFYVLLHGSILSNRGMWQT, with -0.725 ± 1.2.
Then NSILVNVYDKTFRVGLRGRN, with “inactive”; and SLGKLYAGDGVCMGTLPDSK, with 0.017 ± 0.56; and SWNNLIVVRSKVDGCAVSAG, with 0.504 ± 0.73.
Next, TYERICGCMFCLTCSSDAF: -0.19 ± 0.71; VPRYGTLEGANESDLFGW: 0.282 ± 0.78.
Substance PFRNKNQMRWDMKM displayed an amyloid nucleation score of 0.209 ± 0.37.
Next, ISRWMSVDLCLPKLATGTVS: -0.083 ± 0.4; RGSVIWRRRWTTESWSSYFG: 1.25 ± 0.72.
Next, TWSRAQM: “inactive”.
Then GGLWYTSTYSIYG, with 2.42 ± 0.48.
In the case of LFHLPSVYIWFYAT, the amyloid nucleation score was found to be 6.723 ± 0.053.
Then CFGASNSLLFVDSSAWGSSG, with -0.242 ± 0.5.
Next, ILSRVCVRGCIHLPSRMCRS: “inactive”.
Next, IIINGVL: 0.029 ± 0.62; DILQDFIGQPLRSN: 1.04 ± 0.6; SHLLGINCCCA: 0.131 ± 0.85.
As for VFYDVGGVSD, the amyloid nucleation score was 0.03 ± 0.48.
Then RLVKSEDSNKNGLDLCRYEL, with 0.753 ± 0.56.
Then MVGYGECIDMWPMLVKVDVV, with -0.378 ± 0.69.
Then DPIRCMCVFMVHPCRCDID, with 0.45 ± 1.1.
Consider CPWRNRII, for which the amyloid nucleation score worked out at 0.684 ± 0.6.
On to MWVCSYA, for which the amyloid nucleation score entry was “inactive”.
With WRMCSHCVLPHSMFSDSNTV, the amyloid nucleation score is -1.03 ± 1.3.
Next, GVPVYAVFLVDAMMYVCCMF: 3.51 ± 0.14; IELSILSGRRDL: -0.406 ± 0.2.
Then VTLAQKLLDF, with -0.421 ± 1.1; and NRIMY, with -0.09 ± 0.2; and FRRLRMLLILASKFGVD, with -0.392 ± 0.34.
Turning to LCVFVKAGVCWGRTVIRKSG, the amyloid nucleation score result is “inactive”.
Next, TGRRLERGMRLRHGDAEYCC: 0.408 ± 0.28; SRTVVTYHQLTWHGVGYMV: 0.571 ± 1.2; SLPAEYSRRPKWVGASTVDW: 0.527 ± 0.55.
The substance PLLVYIFNFHCYHLVNAMTV came in with an amyloid nucleation score of 2.2 ± 0.32.
Next, MFYLTFYNLRIND: 6.01 ± 0.061.
Next, AIASVLAN: -0.482 ± 0.3.
Then FEYFCRRDRLTK, with -0.209 ± 0.25.
Consider VCRQMYVLDCYS, for which the amyloid nucleation score entry was “inactive”.
Then MVRYLGYYLPNWRSFHWHRL, with 0.951 ± 0.44; and MVLTFAV, with -1.36 ± 2.4; and PYFLGGRA, with -0.809 ± 2.1.
Then REEAVSVGHSRFGFWIVFGG, with -0.264 ± 0.36; and WGCDLEAALY, with 0.016 ± 1.7; and RAAKF, with -1.15 ± 0.58.
Then FVMFMPFSSHFS, with 0.848 ± 0.58; and GYLCLGSCNRSVSLLSSTGS, with 0.407 ± 0.47; and CLYWFLKEHFC, with 1.06 ± 0.78.
For FYFGTSDIPGFFNKSIYLVP, the amyloid nucleation score was determined as 0.435 ± 0.38.
RYRDYSRRIDCLCYVSVPVY displayed an amyloid nucleation score of 0.564 ± 0.4.
Then WATLALSR, with 0.5 ± 0.4; and FPESNKLMV, with 1.06 ± 0.65.
Then SFVVTAEPSRAMNYSCFWKR, with “inactive”; and PFIWDDLAETVLNK, with 0.144 ± 0.27; and YFYDLSRCLFIHCTVGSQIL, with 7.769 ± 0.044.
Turning to KFVHNYSLKYIKGVVSCQFL, the amyloid nucleation score was found to be 0.727 ± 0.37.
Next, MYVSDCCSCICMVVDTRSIF: 0.292 ± 0.39; TTRFRNFKLRSH: “inactive”.
With PLPVVA, the amyloid nucleation score was determined as 0.225 ± 0.5.
Next, ANYFQSICQFDVDRIKLNSA: “inactive”; TAVIKLSCLSLFMNSIMLVY: 2.59 ± 0.12.
Next, LKAHPSVTSCPVRSLI: -0.281 ± 0.39; DYNLVSRYVEPSRLVGFLRI: -0.226 ± 0.73; SYLQGELTDDSMTSFFKGM: -1.3 ± 1.4.
Next, GMRVRNRFVVSDSSYPPASH: -0.024 ± 0.26.
As to RNYTVKKMNLC, the amyloid nucleation score result was “inactive”.
Next, KRRWPSSNGDFFAECYQLGT: 0.461 ± 0.25; SKKSMYFLVRNWSQNLTRAG: 2.21 ± 0.63; SSPVRGASKSSRGSTNVHAN: 0.29 ± 1.1.
Then FSYKIMTSGTCTTWRNAFFS, with -0.341 ± 0.33.
As for LVPPVFRP, the amyloid nucleation score was -1.11 ± 1.1.
The substance TRSLPFSIS had an amyloid nucleation score of 0.109 ± 1.4.
Then VCSLSVYRTCSRDLFNFIWV, with 0.262 ± 0.41; and ESSYLMNKCSSAIQDWDWGR, with 0.321 ± 0.4.
SWGFSMLRMEEWRMPVLFYS: the amyloid nucleation score was -0.446 ± 0.58.
Next, FWNINSSFFGLTNDTLVPNF: 0.79 ± 0.22; FCRFQDR: -0.785 ± 0.64.
Next, FFKGGVNGIFINNGSTFG: 4.91 ± 0.067; DSQVL: 1.25 ± 0.56; ACTSLASFHYVLHPKYSCRV: 1.2 ± 0.76.
As to AYASFDGDPEGRGFTSSKGD, the amyloid nucleation score entry was “inactive”.
Next, LLNVVCRARVWS: -0.241 ± 0.32; FMALLQLAGVIWVSLTVLTP: 0.08 ± 0.62.
Next, HEFNR: -0.936 ± 1.6; RIYLRFYLIIR: 1.07 ± 0.85.
Then ENIDVENQLVYLFKICFGSM, with 3.09 ± 0.12.
As to LRLLSNVKWTKCS, the amyloid nucleation score was determined as 0.367 ± 0.97.
Then EIPLRAGWPPWCGSDICL, with 0.639 ± 0.55; and KYWVGWAVSFCVWYLTRLWE, with 0.337 ± 0.67; and SNIASNKKVIMINHFKGFSL, with 3.58 ± 0.057.
For the substance PKFCWAWSYALMGNKNLKSC, the amyloid nucleation score was -0.715 ± 0.34.
Next, FFLRESNVGLAQRATMELLD: 0.13 ± 1.2; GGYVWVTTSGPVFIQVMNMW: 8.136 ± 0.06.
Next, LSALFLVPHYLDMVNLHSWR: -0.254 ± 0.44; RWGMFTWVYFMLYALWIMTL: 0.042 ± 0.44.
Next, KFKKFGSSDGLDCDRYILVG: -0.799 ± 1.2; DGRVKAKVMMVRNGSLRNVL: 0.002 ± 0.4; RFVIVEVSWLDSLLRLSWED: 0.277 ± 0.99.
The substance FQHLNMVTAFSDSRGIPYML came in with an amyloid nucleation score of 1.05 ± 0.38.
Next, LSYNTISGFIAYIIDMSPFV: “inactive”.
Next, GGTNAGRCMYGGRDI: 0.754 ± 0.7.
